According to patent US11883498B2, “Luteinizing hormone-releasing hormone receptor (LHRH-R) conjugates and uses thereof” (priority 2016, dated 2024):

How the values were obtained:
[1] = system: MDA-MB231 tumor xenografts; conditions: for Competition of kidney uptake by coadministered unlabeled conjugate: 100-fold excess unlabeled conjugate
Experimental: Animal Husbandry and in vivo tumor implantation. Female athymic nu/nu mice were purchased from Harlan laboratories. The animals were housed in a sterile environment and kept in 12 h light/day cycle. The animals have free access to rodent chow and water. 2×10^6 MDA-MB23 cells were suspended in 100 microliters of sterile phosphate buffer saline and injected subcutaneously into the right flank of each mouse.
In vivo imaging and biodistribution. All the animal experiments were conducted in accordance to the guidelines approved by Purdue Animal Care and Use Committee. The experiment was initiated once the tumor volume reached approximately 300-400 mm^3. Tumor volume was measured as 0.5×L×W2, where L is the longest axis and W is an axis perpendicular to L in mm. In the lateral tail vein, the mice were injected with 150 μCi of the radioactive conjugates (either in the presence or absence of excess of the unlabeled conjugates.) in 100 μl of sterile phosphate buffer saline For imaging mice were euthanized 2 h post injection by CO2 asphyxiation and imaged using Kodak Imaging Station. After imaging necroscopy was performed on animals to remove selected tissue and weighted. Tissue bound radioactivity was quantified by using gamma counter (Packard Gamma Counter) For time course study, the animals were sacrificed at following time points post injections: 2 h, 4 h, 6 h, and 8 h. Tissue of interest was weighed and the tissue bound radioactivity was counted by using gamma counter. Count per minute values of tissues bound radioactivity was decay corrected and converted into percentage injected dose per gram if the tissue (% ID/g). The data was analyzed by using GraphPad Prism.
In vivo whole body imaging and biodistribution of JL-L1A, JL-L2A and JL-L3A. In order to investigate the uptake of radioactive conjugates in LHRH-R positive tumors all the three conjugates (150 μCi) were injected the lateral vein of mice with MDA-MB231 tumors. For competition studies the mice were additional injected with 100-fold excess of the unlabeled conjugates. MDA-MB231 tumor bearing mice were injected with the ^99mTc chelated conjugates in their lateral tail vein (mice labeled as treated). Another group of mice were injected with the ^99mTc labeled molecules but in the presence of excess of the unlabeled conjugates. Images were taken 2 h post injections. FIG. 17A represents whole body imaging of JL-L1A whereas FIG. 17B and FIG. 17C represents the whole body imaging of JL-L2A and JL-L3A respectively. (n=5).
The further investigate the retention of 99mTc chelated JL-L3A, the radioactive conjugate was injected in mice with MDA-MB231 xenografts. After euthanizing the. Animals at 2 h, 4 h and 8 h post injection they were imaged and radioactivity associated with organs of interest was counted. […] MDA-MB231 tumor bearing mice were injected with the ^99mTc chelated conjugates in their lateral tail vein (mice labeled as treated). Another group of mice were injected with the ^99mTc labeled molecules but in the presence of excess of the unlabeled conjugates. Radioactivity of all the major organs and blood were determined 2 h post injection and the percentage injected dose per gram of the tissue was plotted. FIG. 18A represents biodistribution of JL-L1A whereas FIG. 18B and FIG. 18C represents the biodistribution of JL-L2A and JL-L3A respectively (n=5). Error bar indicates standard deviation.

[2] = target: T1, LHRH-R (Homo sapiens, UniProt P30968); assay: In vitro binding assay of 99mTc radioactive conjugate by cell bound radioactivity; conditions: MDA-MB231 cells
T1 construct: LHRH-R positive breast cancer cell, MDA-MB231; endogenous in cells; host or cells: MDA-MB231 breast cancer cells
T1 sequence (P30968 1-328): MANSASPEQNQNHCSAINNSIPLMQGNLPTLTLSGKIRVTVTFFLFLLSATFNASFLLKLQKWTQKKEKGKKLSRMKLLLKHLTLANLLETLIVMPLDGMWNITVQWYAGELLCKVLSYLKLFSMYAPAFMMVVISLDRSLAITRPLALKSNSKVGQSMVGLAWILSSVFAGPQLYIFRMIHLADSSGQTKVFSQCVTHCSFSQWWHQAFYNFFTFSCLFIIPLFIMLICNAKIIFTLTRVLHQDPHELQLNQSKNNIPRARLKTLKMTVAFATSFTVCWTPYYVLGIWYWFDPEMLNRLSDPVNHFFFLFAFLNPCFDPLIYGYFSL
Experimental: In vitro binding assay. MDA-MB231 cells were seeded in 24 well plate and allowed to form a monolayer. […] The cells were incubated for 2 h at 37° C. and then rinsed three times with medium. After rinsing cells were dissolved by adding 0.5 ml of 0.25N NaOH to each well for 20 minutes. The cell bound radioactivity measured by using Packcard gamma counter and the Kd was calculated using the graphpad prism by plotting the cell bound radioactivity against the concentration of radiotracer. […] Solid circle indicates ^99mTc chelated conjugates whereas open circle indicates competition.
To determine the binding affinity, the MDA-MB231 cells were incubated with various concentrations of the radioactive conjugate JL-L1A either in the presence or absence of the unlabeled conjugate for 2 h at 37° C.

[3] = system: SKOV3 cells; assay type: cell-based, human; conditions: free drug, 2 h exposure + 66 h, 3H-thymidine incorporation
Experimental: (§1) In vitro determination of cell viability. MDA-MB231 and SKVO3 cells were seeded at a concentration of 10,000 cells per well on a 24 well plate and allowed to grow in monolayers. […] After incubating for 2 h at 37° C., cells were rinsed three times with fresh medium and then incubated in 0.5 ml fresh medium for an additional 66 h at 37° C. Sent medium was then replaced with 0.5 ml of medium containing ^3H-thymidine and incubated for additional 4 h. Cells were then again washed three times with the fresh medium and then incubated with 0.5 ml of 2.5% trichloroacetic acid for 10 min at room temperature. After removing the trichloroacetic acid, cells were dissolved in 0.25 N NaOH. Cell viability was determined by counting the incorporation of ^3H-thymidine in cells using scintillation counter (Packard, Packard Instrument Company). The IC50 value was derived from a plot of the percent of ^3H-thymidine incorporation versus log concentration using Graph Pad Prism 4.
(§2) In vitro cytotoxicity of tubulysin B hydrazide conjugate: To inspect the killing efficiency of the therapeutic conjugate, MDA-MB231 and SKOV3 cancer cells were incubated with various concentrations of JL-L3-TubBH either in the presence or absence of excess JL-L3, for 2 h at 37° C. After washing off the excess conjugate, the cells were incubated in fresh media for an additional 66 h followed by incubation with media containing ^3H-thymidine to assess cell viability. Radioactivity was counted using PerkinElmer's scintillation counter. The same procedure was repeated after exposing the cells to the free tubulysin B hydrazide.

[4] = system: MDA-MB231 cells; assay type: cell-based, human; conditions: free drug, 2 h exposure + 66 h, 3H-thymidine incorporation; read-out: IC50
Experimental: as §1, §2

`Cc1c(-c2cccc(CCC(=O)NCCCCCCCC(=O)N[C@H](CCC(=O)NC[C@H](O)[C@@H](O)[C@H](O)[C@H](O)CO)C(=O)N[C@H](CCC(=O)O)C(=O)N[C@H](CCC(=O)NC[C@H](O)[C@@H](O)[C@H](O)[C@H](O)CO)C(=O)NC[C@H](N)C(=O)N[C@@H](CC(=O)O)C(=O)N[C@@H](CS)C(=O)O)c2)c(=O)n(C[C@H](N)c2ccccc2)c(=O)n1Cc1c(F)cccc1F` (99mTc complex, metal not drawn) [JL-L3A] was tested, and the “Kidney and liver uptake” value ([1]; 99mTc conjugate) was “non-specific”, the “Competition of kidney uptake by coadministered unlabeled conjugate” value ([1]; 2 h post injection) was “not competed” and the Kidney uptake ([1]; 150 μCi, 2 h post injection) was “highest uptake in the kidney”. For the same compound, the Spleen uptake ([1]; 150 μCi, 2 h post injection) was “only minimal activity”, the “Biodistribution compared among the three conjugates” value ([1]; 2 h post injection) was “most favorable biodistributions” and the “Tissue distribution at 4 h and 8 h post injection” value ([1]; compared with 2 h post injection) was “same pattern as 2 h post injection”. The “Tumor radioactivity intensity at 8 h relative to 2 h post-injection” value ([1]; time-dependent imaging, 2 h, 4 h, 8 h) was “less than half of the intensity at 2 h post-injection”.
In the case of `Cc1c(-c2cccc(CCC(=O)N[C@@H](CCC(=O)N[C@H](CCC(=O)NC[C@H](N)C(=O)N[C@@H](CC(=O)O)C(=O)N[C@@H](CS)C(=O)O)C(=O)O)C(=O)O)c2)c(=O)n(C[C@H](N)c2ccccc2)c(=O)n1Cc1c(F)cccc1F` [JL-L1A], the Tumor uptake ([1]; 150 μCi 99mTc conjugate i.v., 2 h post injection, with/without 100-fold excess unlabeled conjugate) is reported as “highest uptake in the tumor” and the “Uptake in other organs” value ([1]; 150 μCi, 2 h post injection) is reported as “uptake in other vital organs”.
For `Cc1c(-c2cccc(CCC(=O)NCCOCCOCCOCCOCCOCCOCCC(=O)NC[C@H](N)C(=O)N[C@@H](CC(=O)O)C(=O)N[C@@H](CS)C(=O)O)c2)c(=O)n(C[C@H](N)c2ccccc2)c(=O)n1Cc1c(F)cccc1F` [JL-L2A], the “Competition of kidney uptake by coadministered unlabeled conjugate” value ([1]; 2 h post injection) was “not competed”, the Kidney uptake ([1]; 150 μCi, 2 h post injection) was “highest uptake in the kidney” and the Spleen uptake ([1]; 150 μCi, 2 h post injection) was “significant non-specific uptake in the spleen”.
`Cc1c(-c2cccc(CCC(=O)NCCCCCCCC(=O)N[C@H](CCC(=O)NC[C@H](O)[C@@H](O)[C@H](O)[C@H](O)CO)C(=O)N[C@H](CCC(=O)O)C(=O)N[C@H](CCC(=O)NC[C@H](O)[C@@H](O)[C@H](O)[C@H](O)CO)C(=O)NC[C@H](N)C(=O)N[C@@H](CC(=O)O)C(=O)N[C@@H](CS)C(=O)O)c2)c(=O)n(C[C@H](N)c2ccccc2)c(=O)n1Cc1c(F)cccc1F` [JL-L3A] was tested, and the Kd ([2]; 99mTc chelated conjugate, 2 h at 37° C.) was 14.4 nM and the “Cell-bound radioactivity under competition” value ([2]; presence of excess of competing ligand) was “diminished”.
`CCCC(=O)OCN(C(=O)[C@@H](NC(=O)[C@H]1CCCCN1C)C(C)CC)[C@H](C[C@@H](OC(C)=O)c1nc(C(=O)N[C@@H](Cc2ccc(O)cc2)C[C@H](C)C(=O)NN)cs1)C(C)C` (stereo partly shown) [tubulysin B hydrazide, Tubulysin B hydrazide, reference compound] was tested, and the IC50 [3] was 0.005 nM and the IC50 [4] was 0.067 nM.
